This note sets out measurements from patent publication US20250312376A1 (FLAGSHIP PIONEERING INNOVATIONS VI, published 2025).

The target of the experiment is T1, BCMA on BCMA-positive tumor cell lines (H929, RPMI-8226) (UniProt Q02223 1-184, limits assumed).
T1 sequence (looked up): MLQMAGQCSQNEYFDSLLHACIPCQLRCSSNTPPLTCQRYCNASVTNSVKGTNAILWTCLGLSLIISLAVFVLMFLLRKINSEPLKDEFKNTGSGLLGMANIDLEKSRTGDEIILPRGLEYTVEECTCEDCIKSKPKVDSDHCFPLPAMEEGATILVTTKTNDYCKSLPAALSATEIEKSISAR
Kind of experiment: cell-based or functional assay.

B1: BCMA-CAR fusion polypeptide (receptor)
chain: QVQLVQSGAEVKKPGASVKVSCKASGYSFPDYYINWVRQAPGQGLEWMGWIYFASGNSEYNQKFTGRVTMTRDTSSSTAYMELSSLRSEDTAVYFCASLYDYDWYFDVWGQGTMVTVSSGGGGSGGGGSGGGGSDIVMTQTPLSLSVTPGEPASISCKSSQSLVHSNGNTYLHWYLQKPGQSPQLLIYKVSNRFSGVPDRFSGSGSGADFTLKISRVEAEDVGVYYCAETSHVPWTFGQGTKLEIKTTTPAPRPPTPAPTIASQPLSLRPEACRPAAGGAVHTRGLDFACDIYIWAPLAGTCGVLLLSLVITLYCRSKRSRLLHSDYMNMTPRRPGPTRKHYQPYAPPRDFAAYRSRVKFSRSADAPAYQQGQNQLYNELNLGRREEYDVLDKRRGRDPEMGGKPRRKNPQEGLYNELQKDKMAEAYSEIGMKGERRRGKGHDGLYQGLSTATKDTYDALHMQALPPR
As to B1, the “% killing at a 0.625 ratio of effector T cells to tumor cells (one donor)” value is greater than 50%.
